In patent US20210388087A1 (Chugai, published 2021):

B1: dBBDu183H D101E / dBBDu072L (antibody, name in Kabat numbering, V domains shown)
VH: QVQLVESGGGLVQPGRSLRLSCAASGFTFSNAWMHWVRQAPGKGLEWVAQIKDKGNAYAAYYAPSVKGRFTISRDDSKNSIYLQMNSLKTEDTAVYYCHYVHYASASTVLPAFGVEAWGQGTTVTVSS
VL: DIVMTQSPLSLPVTPGEPASISCQASQELVHMNRNTYLHWYQQKPGQAPRLLIYKVSNRFPGVPDRFSGSGSGTDFTLKISRVEAEDVGVYYCAQGTSVPFTFGQGTKLEIK
notes: as m1, one VH change
B2: dBBDu183H D101N / dBBDu072L (antibody, name in Kabat numbering, V domains shown)
VH: QVQLVESGGGLVQPGRSLRLSCAASGFTFSNAWMHWVRQAPGKGLEWVAQIKDKGNAYAAYYAPSVKGRFTISRDDSKNSIYLQMNSLKTEDTAVYYCHYVHYASASTVLPAFGVNAWGQGTTVTVSS
VL: DIVMTQSPLSLPVTPGEPASISCQASQELVHMNRNTYLHWYQQKPGQAPRLLIYKVSNRFPGVPDRFSGSGSGTDFTLKISRVEAEDVGVYYCAQGTSVPFTFGQGTKLEIK
notes: as m1, one VH change
B3: dBBDu183H D101Q / dBBDu072L (antibody, name in Kabat numbering, V domains shown)
VH: QVQLVESGGGLVQPGRSLRLSCAASGFTFSNAWMHWVRQAPGKGLEWVAQIKDKGNAYAAYYAPSVKGRFTISRDDSKNSIYLQMNSLKTEDTAVYYCHYVHYASASTVLPAFGVQAWGQGTTVTVSS
VL: DIVMTQSPLSLPVTPGEPASISCQASQELVHMNRNTYLHWYQQKPGQAPRLLIYKVSNRFPGVPDRFSGSGSGTDFTLKISRVEAEDVGVYYCAQGTSVPFTFGQGTKLEIK
notes: as m1, one VH change
B4: dBBDu183H D101S / dBBDu072L (antibody, name in Kabat numbering, V domains shown)
VH: QVQLVESGGGLVQPGRSLRLSCAASGFTFSNAWMHWVRQAPGKGLEWVAQIKDKGNAYAAYYAPSVKGRFTISRDDSKNSIYLQMNSLKTEDTAVYYCHYVHYASASTVLPAFGVSAWGQGTTVTVSS
VL: DIVMTQSPLSLPVTPGEPASISCQASQELVHMNRNTYLHWYQQKPGQAPRLLIYKVSNRFPGVPDRFSGSGSGTDFTLKISRVEAEDVGVYYCAQGTSVPFTFGQGTKLEIK
notes: as m1, one VH change
B5: dBBDu183H D101T / dBBDu072L (antibody, name in Kabat numbering, V domains shown)
VH: QVQLVESGGGLVQPGRSLRLSCAASGFTFSNAWMHWVRQAPGKGLEWVAQIKDKGNAYAAYYAPSVKGRFTISRDDSKNSIYLQMNSLKTEDTAVYYCHYVHYASASTVLPAFGVTAWGQGTTVTVSS
VL: DIVMTQSPLSLPVTPGEPASISCQASQELVHMNRNTYLHWYQQKPGQAPRLLIYKVSNRFPGVPDRFSGSGSGTDFTLKISRVEAEDVGVYYCAQGTSVPFTFGQGTKLEIK
notes: as m1, one VH change
B6: dBBDu183H F100gE / dBBDu072L (antibody, name in Kabat numbering, V domains shown)
VH: QVQLVESGGGLVQPGRSLRLSCAASGFTFSNAWMHWVRQAPGKGLEWVAQIKDKGNAYAAYYAPSVKGRFTISRDDSKNSIYLQMNSLKTEDTAVYYCHYVHYASASTVLPAEGVDAWGQGTTVTVSS
VL: DIVMTQSPLSLPVTPGEPASISCQASQELVHMNRNTYLHWYQQKPGQAPRLLIYKVSNRFPGVPDRFSGSGSGTDFTLKISRVEAEDVGVYYCAQGTSVPFTFGQGTKLEIK
notes: as m1, one VH change
B7: dBBDu183H F100gH / dBBDu072L (antibody, name in Kabat numbering, V domains shown)
VH: QVQLVESGGGLVQPGRSLRLSCAASGFTFSNAWMHWVRQAPGKGLEWVAQIKDKGNAYAAYYAPSVKGRFTISRDDSKNSIYLQMNSLKTEDTAVYYCHYVHYASASTVLPAHGVDAWGQGTTVTVSS
VL: DIVMTQSPLSLPVTPGEPASISCQASQELVHMNRNTYLHWYQQKPGQAPRLLIYKVSNRFPGVPDRFSGSGSGTDFTLKISRVEAEDVGVYYCAQGTSVPFTFGQGTKLEIK
notes: as m1, one VH change
B8: dBBDu183H F100gQ / dBBDu072L (antibody, name in Kabat numbering, V domains shown)
VH: QVQLVESGGGLVQPGRSLRLSCAASGFTFSNAWMHWVRQAPGKGLEWVAQIKDKGNAYAAYYAPSVKGRFTISRDDSKNSIYLQMNSLKTEDTAVYYCHYVHYASASTVLPAQGVDAWGQGTTVTVSS
VL: DIVMTQSPLSLPVTPGEPASISCQASQELVHMNRNTYLHWYQQKPGQAPRLLIYKVSNRFPGVPDRFSGSGSGTDFTLKISRVEAEDVGVYYCAQGTSVPFTFGQGTKLEIK
notes: as m1, one VH change
B9: dBBDu183H F100gS / dBBDu072L (antibody, name in Kabat numbering, V domains shown)
VH: QVQLVESGGGLVQPGRSLRLSCAASGFTFSNAWMHWVRQAPGKGLEWVAQIKDKGNAYAAYYAPSVKGRFTISRDDSKNSIYLQMNSLKTEDTAVYYCHYVHYASASTVLPASGVDAWGQGTTVTVSS
VL: DIVMTQSPLSLPVTPGEPASISCQASQELVHMNRNTYLHWYQQKPGQAPRLLIYKVSNRFPGVPDRFSGSGSGTDFTLKISRVEAEDVGVYYCAQGTSVPFTFGQGTKLEIK
notes: as m1, one VH change
B10: dBBDu183H F100gT / dBBDu072L (antibody, name in Kabat numbering, V domains shown)
VH: QVQLVESGGGLVQPGRSLRLSCAASGFTFSNAWMHWVRQAPGKGLEWVAQIKDKGNAYAAYYAPSVKGRFTISRDDSKNSIYLQMNSLKTEDTAVYYCHYVHYASASTVLPATGVDAWGQGTTVTVSS
VL: DIVMTQSPLSLPVTPGEPASISCQASQELVHMNRNTYLHWYQQKPGQAPRLLIYKVSNRFPGVPDRFSGSGSGTDFTLKISRVEAEDVGVYYCAQGTSVPFTFGQGTKLEIK
notes: as m1, one VH change
B11: dBBDu183H F100gV / dBBDu072L (antibody, name in Kabat numbering, V domains shown)
VH: QVQLVESGGGLVQPGRSLRLSCAASGFTFSNAWMHWVRQAPGKGLEWVAQIKDKGNAYAAYYAPSVKGRFTISRDDSKNSIYLQMNSLKTEDTAVYYCHYVHYASASTVLPAVGVDAWGQGTTVTVSS
VL: DIVMTQSPLSLPVTPGEPASISCQASQELVHMNRNTYLHWYQQKPGQAPRLLIYKVSNRFPGVPDRFSGSGSGTDFTLKISRVEAEDVGVYYCAQGTSVPFTFGQGTKLEIK
notes: as m1, one VH change
B12: dBBDu183H F100gW / dBBDu072L (antibody, name in Kabat numbering, V domains shown)
VH: QVQLVESGGGLVQPGRSLRLSCAASGFTFSNAWMHWVRQAPGKGLEWVAQIKDKGNAYAAYYAPSVKGRFTISRDDSKNSIYLQMNSLKTEDTAVYYCHYVHYASASTVLPAWGVDAWGQGTTVTVSS
VL: DIVMTQSPLSLPVTPGEPASISCQASQELVHMNRNTYLHWYQQKPGQAPRLLIYKVSNRFPGVPDRFSGSGSGTDFTLKISRVEAEDVGVYYCAQGTSVPFTFGQGTKLEIK
notes: as m1, one VH change
B13: dBBDu183H F100gY / dBBDu072L (antibody, name in Kabat numbering, V domains shown)
VH: QVQLVESGGGLVQPGRSLRLSCAASGFTFSNAWMHWVRQAPGKGLEWVAQIKDKGNAYAAYYAPSVKGRFTISRDDSKNSIYLQMNSLKTEDTAVYYCHYVHYASASTVLPAYGVDAWGQGTTVTVSS
VL: DIVMTQSPLSLPVTPGEPASISCQASQELVHMNRNTYLHWYQQKPGQAPRLLIYKVSNRFPGVPDRFSGSGSGTDFTLKISRVEAEDVGVYYCAQGTSVPFTFGQGTKLEIK
notes: as m1, one VH change
B14: dBBDu183H G65D / dBBDu072L (antibody, name in Kabat numbering, V domains shown)
VH: QVQLVESGGGLVQPGRSLRLSCAASGFTFSNAWMHWVRQAPGKGLEWVAQIKDKGNAYAAYYAPSVKDRFTISRDDSKNSIYLQMNSLKTEDTAVYYCHYVHYASASTVLPAFGVDAWGQGTTVTVSS
VL: DIVMTQSPLSLPVTPGEPASISCQASQELVHMNRNTYLHWYQQKPGQAPRLLIYKVSNRFPGVPDRFSGSGSGTDFTLKISRVEAEDVGVYYCAQGTSVPFTFGQGTKLEIK
notes: as m1, one VH change
B15: dBBDu183H G65E / dBBDu072L (antibody, name in Kabat numbering, V domains shown)
VH: QVQLVESGGGLVQPGRSLRLSCAASGFTFSNAWMHWVRQAPGKGLEWVAQIKDKGNAYAAYYAPSVKERFTISRDDSKNSIYLQMNSLKTEDTAVYYCHYVHYASASTVLPAFGVDAWGQGTTVTVSS
VL: DIVMTQSPLSLPVTPGEPASISCQASQELVHMNRNTYLHWYQQKPGQAPRLLIYKVSNRFPGVPDRFSGSGSGTDFTLKISRVEAEDVGVYYCAQGTSVPFTFGQGTKLEIK
notes: as m1, one VH change
B16: dBBDu183H G65F / dBBDu072L (antibody, name in Kabat numbering, V domains shown)
VH: QVQLVESGGGLVQPGRSLRLSCAASGFTFSNAWMHWVRQAPGKGLEWVAQIKDKGNAYAAYYAPSVKFRFTISRDDSKNSIYLQMNSLKTEDTAVYYCHYVHYASASTVLPAFGVDAWGQGTTVTVSS
VL: DIVMTQSPLSLPVTPGEPASISCQASQELVHMNRNTYLHWYQQKPGQAPRLLIYKVSNRFPGVPDRFSGSGSGTDFTLKISRVEAEDVGVYYCAQGTSVPFTFGQGTKLEIK
notes: as m1, one VH change
B17: dBBDu183H G65H / dBBDu072L (antibody, name in Kabat numbering, V domains shown)
VH: QVQLVESGGGLVQPGRSLRLSCAASGFTFSNAWMHWVRQAPGKGLEWVAQIKDKGNAYAAYYAPSVKHRFTISRDDSKNSIYLQMNSLKTEDTAVYYCHYVHYASASTVLPAFGVDAWGQGTTVTVSS
VL: DIVMTQSPLSLPVTPGEPASISCQASQELVHMNRNTYLHWYQQKPGQAPRLLIYKVSNRFPGVPDRFSGSGSGTDFTLKISRVEAEDVGVYYCAQGTSVPFTFGQGTKLEIK
notes: as m1, one VH change
B18: dBBDu183H G65K / dBBDu072L (antibody, name in Kabat numbering, V domains shown)
VH: QVQLVESGGGLVQPGRSLRLSCAASGFTFSNAWMHWVRQAPGKGLEWVAQIKDKGNAYAAYYAPSVKKRFTISRDDSKNSIYLQMNSLKTEDTAVYYCHYVHYASASTVLPAFGVDAWGQGTTVTVSS
VL: DIVMTQSPLSLPVTPGEPASISCQASQELVHMNRNTYLHWYQQKPGQAPRLLIYKVSNRFPGVPDRFSGSGSGTDFTLKISRVEAEDVGVYYCAQGTSVPFTFGQGTKLEIK
notes: as m1, one VH change
B19: dBBDu183H G65N / dBBDu072L (antibody, name in Kabat numbering, V domains shown)
VH: QVQLVESGGGLVQPGRSLRLSCAASGFTFSNAWMHWVRQAPGKGLEWVAQIKDKGNAYAAYYAPSVKNRFTISRDDSKNSIYLQMNSLKTEDTAVYYCHYVHYASASTVLPAFGVDAWGQGTTVTVSS
VL: DIVMTQSPLSLPVTPGEPASISCQASQELVHMNRNTYLHWYQQKPGQAPRLLIYKVSNRFPGVPDRFSGSGSGTDFTLKISRVEAEDVGVYYCAQGTSVPFTFGQGTKLEIK
notes: as m1, one VH change
B20: dBBDu183H G65Q / dBBDu072L (antibody, name in Kabat numbering, V domains shown)
VH: QVQLVESGGGLVQPGRSLRLSCAASGFTFSNAWMHWVRQAPGKGLEWVAQIKDKGNAYAAYYAPSVKQRFTISRDDSKNSIYLQMNSLKTEDTAVYYCHYVHYASASTVLPAFGVDAWGQGTTVTVSS
VL: DIVMTQSPLSLPVTPGEPASISCQASQELVHMNRNTYLHWYQQKPGQAPRLLIYKVSNRFPGVPDRFSGSGSGTDFTLKISRVEAEDVGVYYCAQGTSVPFTFGQGTKLEIK
notes: as m1, one VH change
B21: dBBDu183H G65R / dBBDu072L (antibody, name in Kabat numbering, V domains shown)
VH: QVQLVESGGGLVQPGRSLRLSCAASGFTFSNAWMHWVRQAPGKGLEWVAQIKDKGNAYAAYYAPSVKRRFTISRDDSKNSIYLQMNSLKTEDTAVYYCHYVHYASASTVLPAFGVDAWGQGTTVTVSS
VL: DIVMTQSPLSLPVTPGEPASISCQASQELVHMNRNTYLHWYQQKPGQAPRLLIYKVSNRFPGVPDRFSGSGSGTDFTLKISRVEAEDVGVYYCAQGTSVPFTFGQGTKLEIK
notes: as m1, one VH change

The binders below were run against T1, Human CD137 ECD (human) (assay: SPR, vs parent H183/L072).
T1 construct: also called 4-1BB
T1 sequence (chain, as listed by the source limits assumed): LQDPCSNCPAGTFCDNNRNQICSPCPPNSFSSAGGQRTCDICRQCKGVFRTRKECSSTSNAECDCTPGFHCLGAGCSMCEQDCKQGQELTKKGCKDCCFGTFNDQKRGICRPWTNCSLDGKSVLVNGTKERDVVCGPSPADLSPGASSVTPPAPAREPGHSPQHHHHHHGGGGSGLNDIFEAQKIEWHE
With B1 the “fold change of affinity” value was 2.2 fold. In the case of B2, the “fold change of affinity” value is reported as 0.7 fold. B3 was tested, and the “fold change of affinity” value was 1.7 fold. In the case of B4, the “fold change of affinity” value is reported as 3.3 fold. In the case of B5, the “fold change of affinity” value is reported as 3.3 fold. For B6, the “fold change of affinity” value was 1.9 fold. B7 was tested, and the “fold change of affinity” value was 0.7 fold. B8 was tested, and the “fold change of affinity” value was 0.8 fold. In the case of B9, the “fold change of affinity” value is reported as 0.4 fold. With B10 the “fold change of affinity” value was 0.7 fold. B11 was tested, and the “fold change of affinity” value was 0.5 fold. In the case of B12, the “fold change of affinity” value is reported as 0.6 fold. With B13 the “fold change of affinity” value was 1 fold. For B14, the “fold change of affinity” value was 1.3 fold. B15 was tested, and the “fold change of affinity” value was 1.3 fold. For B16, the “fold change of affinity” value was 1.3 fold. In the case of B17, the “fold change of affinity” value is reported as 1.2 fold. With B18 the “fold change of affinity” value was 1.1 fold. B19 was tested, and the “fold change of affinity” value was 1.2 fold. B20 was tested, and the “fold change of affinity” value was 1.2 fold. For B21, the “fold change of affinity” value was 1.1 fold.
